What was measured:
PD-1 expressed on cells [1] = molecular target: T1, PD-1 expressed on cells (UniProt Q15116 25-288, limits assumed); experiment: FACS competition, PD-L1 binding to CHO-PD-1 cells
T1 construct: whole, on cells; also called CHO-PD-1 cells; PD-1 effector cells

PD-1 expressed on cells [2] = molecular target: T1, PD-1 expressed on cells; experiment: cell-based or functional assay
PD-1 expressed on cells [3] = molecular target: T1, PD-1 expressed on cells; experiment: FACS, CHO-PD-1 cells
[4] = molecular target: T2, human PD-1 (Acrobiosystems) (human, UniProt Q15116 25-167); experiment: SPR as in Example 2
T2 construct: bought
T2 sequence (Q15116 25-167 limits assumed): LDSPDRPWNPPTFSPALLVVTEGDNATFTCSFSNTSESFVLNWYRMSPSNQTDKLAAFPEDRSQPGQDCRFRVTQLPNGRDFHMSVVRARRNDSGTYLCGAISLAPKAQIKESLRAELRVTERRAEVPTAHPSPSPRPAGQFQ
Experimental: (§1) BIAcore T200 instrument was utilized to determine affinity constant (KD) of each anti-TIGIT sdAb-Fc fusion protein by SPR. […] Anti-TIGIT sdAb-Fc fusion proteins were injected at no less than 5 different concentrations.

[5] = molecular target: T3, TIGIT on activated primary human T cells (human, UniProt Q495A1); experiment: FACS binding to activated, expanded primary human CD4+ T cells isolated from PBMCs; the sheet names only the cells, target by the binder's specificity as named in the filing (anti-TIGIT)
T3 sequence (receptor, looked up): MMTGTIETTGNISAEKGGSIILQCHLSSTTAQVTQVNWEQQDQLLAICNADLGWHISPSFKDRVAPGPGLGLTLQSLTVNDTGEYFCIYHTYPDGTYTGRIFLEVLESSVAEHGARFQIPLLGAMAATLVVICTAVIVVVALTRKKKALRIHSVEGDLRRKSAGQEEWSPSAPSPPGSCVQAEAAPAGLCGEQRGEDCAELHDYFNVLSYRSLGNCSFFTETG

[6] = molecular target: T3, TIGIT on activated primary human T cells; experiment: FACS binding to activated, expanded primary human CD8+ T cells isolated from PBMCs; the sheet names only the cells, target by the binder's specificity as named in the filing (anti-TIGIT)
[7] = molecular target: T4, TIGIT on TIGIT effector cells (UniProt Q495A1 22-244, limits assumed); experiment: cell-based or functional assay
T4 sequence (looked up): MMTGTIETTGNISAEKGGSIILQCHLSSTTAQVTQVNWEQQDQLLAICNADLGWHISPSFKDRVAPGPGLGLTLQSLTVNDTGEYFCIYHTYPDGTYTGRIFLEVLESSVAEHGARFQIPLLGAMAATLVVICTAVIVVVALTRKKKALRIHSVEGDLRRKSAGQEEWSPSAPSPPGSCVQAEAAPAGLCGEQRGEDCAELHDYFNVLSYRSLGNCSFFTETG

[8] = molecular target: T5, human TIGIT-His protein (Acrobiosystems) (human, UniProt Q495A1 22-141); experiment: SPR as in Example 2
T5 construct: Bought; Genbank NP_776160
T5 sequence: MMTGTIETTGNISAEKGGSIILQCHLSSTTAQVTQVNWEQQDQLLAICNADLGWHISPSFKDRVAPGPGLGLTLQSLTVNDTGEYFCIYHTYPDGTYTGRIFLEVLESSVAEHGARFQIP
Experimental: as §1

[9] = molecular target: T6, mouse TIGIT-His protein (Acrobiosystems) (mouse, UniProt P86176 29-148, limits assumed); experiment: SPR as in Example 2
T6 construct: bought
T6 sequence (looked up): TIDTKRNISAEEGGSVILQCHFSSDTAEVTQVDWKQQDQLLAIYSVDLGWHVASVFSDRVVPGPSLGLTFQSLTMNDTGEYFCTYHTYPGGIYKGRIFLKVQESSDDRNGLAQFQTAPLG
Experimental: as §1

[10] = molecular target: T4, TIGIT on TIGIT effector cells; experiment: cell-based or functional assay; remark: listed apart in the source
[11] = molecular target: T7, human TIGIT expressed on CHO-K1 cells (human, UniProt Q495A1 22-244); experiment: FACS, CHO-TIGIT cells
T7 construct: also called CHO/human TIGIT cells; CHO-TIGIT cells
T7 sequence: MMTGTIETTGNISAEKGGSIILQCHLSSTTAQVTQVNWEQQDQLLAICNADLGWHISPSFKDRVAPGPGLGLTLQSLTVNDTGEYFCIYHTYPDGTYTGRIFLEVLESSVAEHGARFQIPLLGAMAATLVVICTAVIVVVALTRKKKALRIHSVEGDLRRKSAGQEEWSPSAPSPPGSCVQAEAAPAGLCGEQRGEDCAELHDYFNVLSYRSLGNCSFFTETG
Experimental: (§2) To determine cell binding EC₅₀, CHO—K1 cells expressing human, cynomolgus or murine TIGIT were harvested and incubated with gradient concentrations of anti-TIGIT sdAb-Fc fusion proteins, followed by fluorophore-labeled secondary antibodies against human Fc. […] Samples were analyzed with flow cytometry.

[12] = molecular target: T7, human TIGIT expressed on CHO-K1 cells; experiment: FACS competition, CD155 binding to CHO-TIGIT cells
Experimental: as §2

[13] = molecular target: T7, human TIGIT expressed on CHO-K1 cells; experiment: FACS, CHO-K1 cells expressing human TIGIT
Experimental: as §2

murine TIGIT-Fc = molecular target: T8, murine TIGIT-Fc (murine, UniProt P86176 29-148, limits assumed); experiment: FACS competition, murine TIGIT-Fc binding to CT26 cells (murine CD155)
T8 construct: not shown: Fc part, detected with a secondary antibody against human Fc
T8 sequence (looked up): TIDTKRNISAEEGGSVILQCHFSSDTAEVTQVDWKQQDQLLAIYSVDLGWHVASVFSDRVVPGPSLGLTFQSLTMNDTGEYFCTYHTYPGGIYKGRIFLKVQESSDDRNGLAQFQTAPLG

[14] = molecular target: T9, murine TIGIT expressed on CHO-K1 cells (murine, UniProt P86176 29-249); experiment: FACS, CHO-K1 cells expressing murine TIGIT
T9 construct: whole, on cells; also called CHO/mouse TIGIT; mouse TIGIT expressed on CHO cells
T9 sequence (looked up): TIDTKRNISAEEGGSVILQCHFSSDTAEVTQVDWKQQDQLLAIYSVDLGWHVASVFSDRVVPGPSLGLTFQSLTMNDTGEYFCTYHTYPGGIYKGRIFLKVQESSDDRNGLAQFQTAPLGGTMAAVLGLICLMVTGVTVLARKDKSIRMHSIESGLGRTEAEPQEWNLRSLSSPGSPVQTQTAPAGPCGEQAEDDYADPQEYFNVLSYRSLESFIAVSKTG
Experimental: as §2

[15] = molecular target: T7, human TIGIT expressed on CHO-K1 cells; experiment: FACS competition, biotinylated CD155-Fc on CHO/human TIGIT cells
Experimental: as §2

T1 sequence (Q15116 25-288 limits assumed): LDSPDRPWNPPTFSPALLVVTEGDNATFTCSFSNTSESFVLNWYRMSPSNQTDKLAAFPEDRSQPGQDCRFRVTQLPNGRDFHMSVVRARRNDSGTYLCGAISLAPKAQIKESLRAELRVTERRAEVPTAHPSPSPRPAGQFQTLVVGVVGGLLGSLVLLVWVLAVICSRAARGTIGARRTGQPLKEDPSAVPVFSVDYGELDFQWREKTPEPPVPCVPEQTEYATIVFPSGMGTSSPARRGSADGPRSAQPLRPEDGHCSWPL

B1: PD1-BM-min (IgG4) (antibody, V domains shown)
VH: EVQLVESGGGLVQPGGSLRLSCAASGFVFSRYDMAWVRQAPGKGLEWVSFISGGGSNTYYPDTVKGRFTISRDNSKNTLYLQMNSLRAEDTAVYYCISPYYYAMEYWGQGTTVTVSS
VL: DIQMTQSPSSVSASVGDRVTITCKASQDVDTAVAWYQQKPGKAPKLLIYWASTRHTGVPSRFSGSGSGTDFTLTISSLQPEDFATYYCQQYSTFPWTFGGGTKVEIKR
notes: anti-PD-1 monoclonal antibody, human IgG4 Fc
EC50 (PD-1 expressed on cells [1]): 1.51 nM
PD-1 cell based assay EC50 (PD-1 expressed on cells [2]): 1.21 nM
EC50 (PD-1 expressed on cells [3]): 1.72 nM
Kd [4]: 1.2 nM

B2: AS19584VH28-Fc fusion protein with effectorless human IgG1 (inert hIgG1) Fc (Fc fusion)
chain: EVQLVESGGGLVQPGGSLRLSCAASGYKYGVYSMGWFRQAPGKGLEGVSAICSGGRTTYSDSVKGRFTISRDNSNQILYLQMNSLRAEDTAVYYCAARPLWTGDCDLSSSWYKTWGQGTLVTVSSAPELLGGPSVFLFPPKPKDTLMISRTPEVTCVVVDVSHEDPEVKFNWYVDGVEVHNAKTKPREEQYASTYRVVSVLTVLHQDWLNGKEYKCKVSNKALPAPIEKTISKAKGQPREPQVYTLPPSREEMTKNQVSLTCLVKGFYPSDIAVEWESNGQPENNYKTTPPVLDSDGSFFLYSKLTVDKSRWQQGNVFSCSVMHEALHNHYTQKSLSLSPGK
notes: built from the sdAb and the inert IgG1 Fc region it names; also called AS19584VH28 (inert IgG1); AS19584VH28 inert IgG1
EC50 [5]: 0.107 nM
EC50 [6]: 0.174 nM
TIGIT Reporter assay EC50 [7]: 5.42 nM
Kd [8]: 0.36 nM
Kd [9]: 1.1 nM
PD-L1/TIGIT bifunctional reporter assay: EC50 [10]: 10.6 nM
PD-L1/TIGIT bifunctional reporter assay: Upper plateau of signal [10]: 1610

B3: Tiragolumab (antibody, human IgG1, kappa, V domains shown)
VH: EVQLQQSGPGLVKPSQTLSLTCAISGDSVSSNSAAWNWIRQSPSRGLEWLGKTYYRFKWYSDYAVSVKGRITINPDTSKNQFSLQLNSVTPEDTAVFYCTRESTTYDLLAGPFDYWGQGTLVTVSS
VL: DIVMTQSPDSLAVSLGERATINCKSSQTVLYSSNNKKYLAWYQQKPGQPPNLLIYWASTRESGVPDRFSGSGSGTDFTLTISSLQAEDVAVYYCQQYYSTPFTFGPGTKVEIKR
notes: also called Tiragolumab (anti-TIGIT)
EC50 [5]: 0.403 nM
EC50 [11]: 2.24 nM
EC50 [12]: 2.42 nM
EC50 [6]: 1.41 nM
TIGIT Reporter assay EC50 [7]: 11.4 nM
PD-L1/TIGIT bifunctional reporter assay: EC50 [10]: 3.61 nM
PD-L1/TIGIT bifunctional reporter assay: Upper plateau of signal [10]: 983

B4: 10A7 mAb (antibody, human IgG1, kappa, V domains shown)
VH: EVQLVESGGGLTQPGKSLKLSCEASGFTFSSFTMHWVRQSPGKGLEWVAFIRSGSGIVFYADAVRGRFTISRDNAKNLLFLQMNDLKSEDTAMYYCARRPLGHNTFDSWGQGTLVTVSS
VL: DIVMTQSPSSLAVSPGEKVTMTCKSSQSLYYSGVKENLLAWYQQKPGQSPKLLIYYASIRFTGVPDRFTGSGSGTDYTLTITSVQAEDMGQYFCQQGINNPLTFGDGTKLEIKR
EC50 [13]: 4.06 nM
EC50 (murine TIGIT-Fc): 71.3 nM
EC50 [14]: 0.709 nM
EC50 [15]: 5.27 nM
